US20120034160A1 (AbbVie / Abbott, published 2012)
Substitutions are numbered along the chain they refer to.

B1: DVD1287 (bispecific antibody, human IgG1, kappa)
heavy: not shown
light: EIVLTQSPDFQSVTPKEKVTITCRASQNIGSELHWYQQKPDQSPKLLIKYASHSISGVPSRFSGSGSGTDFTLTINGLEAEDAATYYCHQSDTLPHTFGQGTKVDIKRTVAAPDTQVTQSPSSLSASVGDRVTITCITSTDIDVDMNWYQQKPGKPPKLLISQGNTLRPGVPSRFSSSGSGTDFTFTISSLQPEDFATYYCLQSDNLPLTFGQGTKLEIKRTVAAPSVFIFPPSDEQLKSGTASVVCLLNNFYPREAKVQWKVDNALQSGNSQESVTEQDSKDSTYSLSSTLTLSKADYEKHKVYACEVTHQGLSSPVTKSFNRGEC
notes: DVD-Ig, outer AB275, inner AB270, linker set 1; V1 wt hIgG1, V2 kappa; also called DVD1287H; DVD1287L
B2: DVD1291 (bispecific antibody, human IgG1, kappa)
heavy: not shown
light: B1 light with D114E, Q116T
notes: DVD-Ig, outer AB275, inner AB272, linker set 1; V1 wt hIgG1, V2 kappa; also called DVD1291H; DVD1291L
B3: DVD1590 (bispecific antibody, human IgG1, kappa)
heavy: not shown
light: DIQMTQSPSSLSASVGDRVTITCRASSGIISYIDWFQQKPGKAPKRLIYATFDLASGVPSRFSGSGSGTDYTLTISSLQPEDFATYYCRQVGSYPETFGQGTKLEIKRTVAAPSVFIFPPDIQMTQSPSSLSASVGDRVTITCRASGNIHNYLTWYQQTPGKAPKLLIYNAKTLADGVPSRFSGSGSGTDYTFTISSLQPEDIATYYCQHFWSIPYTFGQGTKLQITRTVAAPSVFIFPPSDEQLKSGTASVVCLLNNFYPREAKVQWKVDNALQSGNSQESVTEQDSKDSTYSLSSTLTLSKADYEKHKVYACEVTHQGLSSPVTKSFNRGEC
notes: V1 wt hIgG1, V2 kappa; also called DVD1590H; DVD1590L
B4: DVD1592 (bispecific antibody, human IgG1, kappa)
heavy: not shown
light: B3 light
notes: V1 wt hIgG1, V2 kappa; also called DVD1592H; DVD1592L
B5: DVD1596 (bispecific antibody, human IgG1, kappa)
heavy: not shown
light: DIQMTQSPSSLSASVGDRVTITCRASSGIISYIDWFQQKPGKAPKRLIYATFDLASGVPSRFSGSGSGTDYTLTISSLQPEDFATYYCRQVGSYPETFGQGTKLEIKRTVAAPSVFIFPPDTVVTQSPAFLSVTPGEKVTITCITSTDIDVDMNWYQQKPDQPPKLLISQGNTLRPGVPSRFSSSGSGTDFTFTISSLEAEDAATYYCLQSDNLPLTFGQGTKLEIKRTVAAPSVFIFPPSDEQLKSGTASVVCLLNNFYPREAKVQWKVDNALQSGNSQESVTEQDSKDSTYSLSSTLTLSKADYEKHKVYACEVTHQGLSSPVTKSFNRGEC
notes: DVD-Ig, outer AB273, inner AB271, linker set 2; V1 wt hIgG1, V2 kappa; also called DVD1596H; DVD1596L
B6: DVD1594 (bispecific antibody, human IgG1, kappa)
heavy: not shown
light: DIQMTQSPSSLSASVGDRVTITCRASSGIISYIDWFQQKPGKAPKRLIYATFDLASGVPSRFSGSGSGTDYTLTISSLQPEDFATYYCRQVGSYPETFGQGTKLEIKRTVAAPSVFIFPPDTQVTQSPSSLSASVGDRVTITCITSTDIDVDMNWYQQKPGKPPKLLISQGNTLRPGVPSRFSSSGSGTDFTFTISSLQPEDFATYYCLQSDNLPLTFGQGTKLEIKRTVAAPSVFIFPPSDEQLKSGTASVVCLLNNFYPREAKVQWKVDNALQSGNSQESVTEQDSKDSTYSLSSTLTLSKADYEKHKVYACEVTHQGLSSPVTKSFNRGEC
notes: DVD-Ig, outer AB273, inner AB270, linker set 2; V1 wt hIgG1, V2 kappa; also called DVD1594H; DVD1594L
B7: DVD1598 (bispecific antibody, human IgG1, kappa)
heavy: not shown
light: B6 light with D121E, Q123T
notes: DVD-Ig, outer AB273, inner AB272, linker set 2; V1 wt hIgG1, V2 kappa; also called DVD1598H; DVD1598L
B8: DVD1289 (bispecific antibody, human IgG1, kappa)
heavy: not shown
light: EIVLTQSPDFQSVTPKEKVTITCRASQNIGSELHWYQQKPDQSPKLLIKYASHSISGVPSRFSGSGSGTDFTLTINGLEAEDAATYYCHQSDTLPHTFGQGTKVDIKRTVAAPDTVVTQSPAFLSVTPGEKVTITCITSTDIDVDMNWYQQKPDQPPKLLISQGNTLRPGVPSRFSSSGSGTDFTFTISSLEAEDAATYYCLQSDNLPLTFGQGTKLEIKRTVAAPSVFIFPPSDEQLKSGTASVVCLLNNFYPREAKVQWKVDNALQSGNSQESVTEQDSKDSTYSLSSTLTLSKADYEKHKVYACEVTHQGLSSPVTKSFNRGEC
notes: DVD-Ig, outer AB275, inner AB271, linker set 1; V1 wt hIgG1, V2 kappa; also called DVD1289H; DVD1289L
B9: DVD1604 (bispecific antibody, human IgG1, kappa)
heavy: not shown
light: EIVLTQSPDFQSVTPKEKVTITCRASQDIGSELHWYQQKPDQPPKLLIKYASHSTSGVPSRFSGSGSGTDFTLTINGLEAEDAGTYYCHQTDSLPYTFGPGTKVDIKRTVAAPSVFIFPPDTQVTQSPSSLSASVGDRVTITCITSTDIDVDMNWYQQKPGKPPKLLISQGNTLRPGVPSRFSSSGSGTDFTFTISSLQPEDFATYYCLQSDNLPLTFGQGTKLEIKRTVAAPSVFIFPPSDEQLKSGTASVVCLLNNFYPREAKVQWKVDNALQSGNSQESVTEQDSKDSTYSLSSTLTLSKADYEKHKVYACEVTHQGLSSPVTKSFNRGEC
notes: DVD-Ig, outer AB274, inner AB270, linker set 2; V1 wt hIgG1, V2 kappa; also called DVD1604H; DVD1604L
B10: DVD1285 (bispecific antibody, human IgG1, kappa)
heavy: not shown
light: EIVLTQSPDFQSVTPKEKVTITCRASQNIGSELHWYQQKPDQSPKLLIKYASHSISGVPSRFSGSGSGTDFTLTINGLEAEDAATYYCHQSDTLPHTFGQGTKVDIKRTVAAPDIQMTQSPSSLSASVGDRVTITCRASGNIHNYLTWYQQTPGKAPKLLIYNAKTLADGVPSRFSGSGSGTDYTFTISSLQPEDIATYYCQHFWSIPYTFGQGTKLQITRTVAAPSVFIFPPSDEQLKSGTASVVCLLNNFYPREAKVQWKVDNALQSGNSQESVTEQDSKDSTYSLSSTLTLSKADYEKHKVYACEVTHQGLSSPVTKSFNRGEC
notes: V1 wt hIgG1, V2 kappa; also called DVD1285H; DVD1285L
B11: DVD1600 (bispecific antibody, human IgG1, kappa)
heavy: not shown
light: EIVLTQSPDFQSVTPKEKVTITCRASQDIGSELHWYQQKPDQPPKLLIKYASHSTSGVPSRFSGSGSGTDFTLTINGLEAEDAGTYYCHQTDSLPYTFGPGTKVDIKRTVAAPSVFIFPPDIQMTQSPSSLSASVGDRVTITCRASGNIHNYLTWYQQTPGKAPKLLIYNAKTLADGVPSRFSGSGSGTDYTFTISSLQPEDIATYYCQHFWSIPYTFGQGTKLQITRTVAAPSVFIFPPSDEQLKSGTASVVCLLNNFYPREAKVQWKVDNALQSGNSQESVTEQDSKDSTYSLSSTLTLSKADYEKHKVYACEVTHQGLSSPVTKSFNRGEC
notes: V1 wt hIgG1, V2 kappa; also called DVD1600H; DVD1600L
B12: DVD1602 (bispecific antibody, human IgG1, kappa)
heavy: not shown
light: B11 light
notes: V1 wt hIgG1, V2 kappa; also called DVD1602H; DVD1602L

Legend:
Recombinant Human IL-17 = target: T1, Recombinant Human IL-17 (human, UniProt Q16552 20-155, limits assumed); test: Biacore SPR; N-terminal VD
T1 construct: bought reagent
T1 sequence (looked up): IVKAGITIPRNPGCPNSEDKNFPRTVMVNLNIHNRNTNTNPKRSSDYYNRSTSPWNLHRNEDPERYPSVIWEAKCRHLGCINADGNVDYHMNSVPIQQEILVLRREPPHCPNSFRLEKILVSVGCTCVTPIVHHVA
Protocol: (§1) The BIACORE assay (Biacore, Inc, Piscataway, N.J.) determines the affinity of antibodies or DVD-Ig with kinetic measurements of on-rate and off-rate constants. Binding of antibodies or DVD-Ig to a target antigen (for example, a purified recombinant target antigen) was determined by surface plasmon resonance-based measurements with a Biacore® 1000 or 3000 instrument (Biacore® AB, Uppsala, Sweden) using running HBS-EP (10 mM HEPES [pH 7.4], 150 mM NaCl, 3 mM EDTA, and 0.005% surfactant P20) at 25° C. All chemicals were obtained from Biacore® AB (Uppsala, Sweden) or otherwise from a different source as described in the text. For example, approximately 5000 RU of goat anti-mouse IgG, (Fcγ), fragment specific polyclonal antibody (Pierce Biotechnology Inc, Rockford, Ill.) diluted in 10 mM sodium acetate (pH 4.5) was directly immobilized across a CM5 research grade biosensor chip using a standard amine coupling kit according to manufacturer's instructions and procedures at 25 μg/ml. Unreacted moieties on the biosensor surface were blocked with ethanolamine. Modified carboxymethyl dextran surface in flowcell 2 and 4 was used as a reaction surface. Unmodified carboxymethyl dextran without goat anti-mouse IgG in flow cell 1 and 3 was used as the reference surface. For kinetic analysis, rate equations derived from the 1:1 Langmuir binding model were fitted simultaneously to association and dissociation phases of all eight injections (using global fit analysis) with the use of Biaevaluation 4.0.1 software. Purified antibodies or DVD-Ig were diluted in HEPES-buffered saline for capture across goat anti-mouse IgG specific reaction surfaces. Antibodies or DVD-Ig to be captured as a ligand (25 μg/ml) were injected over reaction matrices at a flow rate of 5 μl/min. The association and dissociation rate constants, kₒₙ (M⁻¹s⁻¹) and koff (s⁻¹) were determined under a continuous flow rate of 25 μl/min. Rate constants were derived by making kinetic binding measurements at different antigen concentrations ranging from 10−200 nM. The equilibrium dissociation constant (M) of the reaction between antibodies or DVD-Igs and the target antigen was then calculated from the kinetic rate constants by the following formula: KD=koff/kₒₙ. Binding was recorded as a function of time and kinetic rate constants are calculated.

Recombinant Human IL-1β = target: T2, Recombinant Human IL-1β (human, UniProt P01584 117-269); test: Biacore SPR; C-terminal VD
T2 construct: bought reagent; also called IL-1B
Protocol: as §1

Binder	Kd (Recombinant Human IL-17) [nM]	koff (Recombinant Human IL-17) [s⁻¹]	kon (Recombinant Human IL-17) [M⁻¹ s⁻¹]	Kd (Recombinant Human IL-1β) [nM]	koff (Recombinant Human IL-1β) [s⁻¹]	kon (Recombinant Human IL-1β) [M⁻¹ s⁻¹]
B1	0.3	4.7e-05	160000	1.2	0.00037	310000
B2	0.048	6e-07	12000	2.8	0.00058	210000
B3	0.0018	7e-06	3.8e+06	0.19	4.6e-05	250000
B4	0.0064	2e-05	3.2e+06	0.0072	4.9e-06	690000
B5	0.0033	1.3e-05	4.1e+06	0.51	0.00036	700000
B6	0.0056	2.3e-05	4.2e+06	0.6	0.00043	710000
B7	0.0051	1.8e-05	3.5e+06	1.2	0.00074	630000
B8	0.4	5.6e-05	140000	1.3	0.00048	370000
B9	0.0026	9.7e-06	3.8e+06	0.29	0.00037	1.3e+06
B10	0.39	5.8e-05	150000	0.24	0.0002	820000
B11	≤ 0.0038	< 1e-06	2.8e+06	0.55	9.4e-05	170000
B12	0.0051	1.4e-05	2.7e+06	0.18	2.3e-05	130000
